The values that follow come from PMC4957108, “Impact of structural polymorphism for the Helicobacter pylori CagA oncoprotein on binding to polarity-regulating kinase PAR1b” (Scientific Reports, 2016).

A word on the stoichiometry N: it is the number of molecules, sites or subunits per partner or assembly.

Common to all, as to conditions: both partners purified
One test addresses T1, CagA-2CM^W (Helicobacter pylori strain 26695, UniProt P55980 1-1186).
T1 construct: also called canonical Western ABC type CagA
T1 sequence (looked up): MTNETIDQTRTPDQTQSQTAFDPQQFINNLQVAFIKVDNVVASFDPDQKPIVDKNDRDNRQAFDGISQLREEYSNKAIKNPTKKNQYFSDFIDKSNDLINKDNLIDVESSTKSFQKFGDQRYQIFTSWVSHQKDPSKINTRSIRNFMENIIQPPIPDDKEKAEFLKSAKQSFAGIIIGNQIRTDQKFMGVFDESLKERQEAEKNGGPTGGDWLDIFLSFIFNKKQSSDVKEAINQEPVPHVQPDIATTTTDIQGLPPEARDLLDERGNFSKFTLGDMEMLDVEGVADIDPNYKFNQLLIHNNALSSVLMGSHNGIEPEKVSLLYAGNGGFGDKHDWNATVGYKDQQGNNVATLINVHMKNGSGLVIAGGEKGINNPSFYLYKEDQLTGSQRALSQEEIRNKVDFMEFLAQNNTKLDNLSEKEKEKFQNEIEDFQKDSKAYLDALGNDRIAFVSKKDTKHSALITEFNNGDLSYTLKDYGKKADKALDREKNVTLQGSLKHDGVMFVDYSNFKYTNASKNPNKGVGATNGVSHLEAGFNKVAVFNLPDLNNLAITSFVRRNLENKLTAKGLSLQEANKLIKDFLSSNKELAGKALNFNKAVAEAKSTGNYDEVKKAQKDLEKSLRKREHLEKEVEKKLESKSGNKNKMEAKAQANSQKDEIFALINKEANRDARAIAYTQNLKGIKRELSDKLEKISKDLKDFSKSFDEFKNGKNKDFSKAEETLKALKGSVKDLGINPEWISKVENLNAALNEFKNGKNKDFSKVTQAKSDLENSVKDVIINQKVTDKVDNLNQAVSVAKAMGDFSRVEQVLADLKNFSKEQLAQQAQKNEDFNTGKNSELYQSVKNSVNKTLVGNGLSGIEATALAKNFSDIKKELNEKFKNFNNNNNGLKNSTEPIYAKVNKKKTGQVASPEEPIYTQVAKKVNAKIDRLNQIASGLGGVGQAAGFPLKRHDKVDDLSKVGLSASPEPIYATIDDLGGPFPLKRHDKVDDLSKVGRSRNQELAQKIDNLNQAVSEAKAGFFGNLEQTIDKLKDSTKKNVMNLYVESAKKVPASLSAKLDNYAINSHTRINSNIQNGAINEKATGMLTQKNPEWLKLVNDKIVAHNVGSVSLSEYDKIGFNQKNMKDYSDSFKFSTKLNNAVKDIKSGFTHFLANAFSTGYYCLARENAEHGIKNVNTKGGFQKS
In words: SEC; Superdex 200 10/300 GL, HBS-P running buffer, 4 °C, 0.5 ml/min; CagA constructs alone or mixed with PAR1b (39–364) at a molar ratio of 1:1 or 1:2; fractions on SDS-PAGE, CBB bands quantified. (In gel filtration, larger molecules generally elute earlier.)

The target of another test is GST-CagA-2CM^W (Helicobacter pylori strain 26695, UniProt P55980 1-1186). In words: pull-down; quantitative GST pull-down: GST-CagA on beads in a range of concentrations, fixed low concentration of PAR1b (39–364)-FLAG, GST-binding buffer with 0.01% Triton-X, 20 min at 4 °C, unbound PAR1b in the supernatant quantified, binding to GST control subtracted; apparent KD.
The target of a further test is GST-CagA-4CM^W (Helicobacter pylori strain NCTC11637). Described as above.

B1: PAR1b (39–364) (domain or fragment)
chain: not shown
modifications: C-terminal 6xHis tag left out
B1: in the test with CagA-2CM^W, the “stoichiometry N” value amounted to 2 PAR1b per CagA.

B2: PAR1b (39–364)-FLAG (domain or fragment)
chain: not shown
modifications: C-terminal FLAG-6xHis tag left out
Regarding B2, in the test with GST-CagA-2CM^W, the Kd was determined as 26.6 nM.

B3: PAR1b (39–364)-FLAG (domain or fragment)
chain: not shown
As to B3, the Kd in the test with GST-CagA-4CM^W was 2.43 nM.
